This note sets out measurements from paper PMC11731006, “Structural insight into Okazaki fragment maturation mediated by PCNA-bound FEN1 and RNaseH2”.

The data set deals with RNaseH2 complex (RNaseH2A/RNaseH2B/RNaseH2C), wild type;PCNA (Homo sapiens;Homo sapiens, UniProt O75792;Q5TBB1;Q8TDP1;P12004 1-299;1-312;1-164;1-261, |). The data set can be described thus: EMSA; 100 nM PCNA; 2 mM MgCl2; 100 nM DNA; 0.4-1.0 uM RNaseH2; PCNA raises binding (p 0.025, 0.010, 0.003 at 0.6, 0.8, 1.0 uM; ns at 0.4 uM); EMSA: 25 mM Tris pH 7.5, 100 mM NaCl, 10% glycerol, 2 mM MgCl2, 30 min at RT; 5% native TBE-PAGE at 4 C. Cryo-EM structures (8YJH-8YJZ) carry endogenous DNA of. To be noted: protein: recombinant;recombinant; tags: N-terminal 6xHis (each subunit as stated);N-terminal 6xHis; copies: 1;1;1;3; blunt. For orientation: In EMSA bound probe runs differently from free probe, usually more slowly.
Chain of RNaseH2 complex (RNaseH2A/RNaseH2B/RNaseH2C), wild type;PCNA (O75792 whole entry, chain 1 of 4): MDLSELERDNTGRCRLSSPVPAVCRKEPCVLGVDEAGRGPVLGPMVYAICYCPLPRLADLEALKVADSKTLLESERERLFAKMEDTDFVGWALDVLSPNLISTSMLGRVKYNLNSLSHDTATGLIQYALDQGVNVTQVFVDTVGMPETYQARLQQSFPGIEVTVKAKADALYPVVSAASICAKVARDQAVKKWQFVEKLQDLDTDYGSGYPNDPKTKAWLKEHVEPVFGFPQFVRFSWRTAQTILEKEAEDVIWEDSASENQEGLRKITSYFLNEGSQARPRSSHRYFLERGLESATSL
Chain of RNaseH2 complex (RNaseH2A/RNaseH2B/RNaseH2C), wild type;PCNA (Q5TBB1 whole entry, chain 2 of 4): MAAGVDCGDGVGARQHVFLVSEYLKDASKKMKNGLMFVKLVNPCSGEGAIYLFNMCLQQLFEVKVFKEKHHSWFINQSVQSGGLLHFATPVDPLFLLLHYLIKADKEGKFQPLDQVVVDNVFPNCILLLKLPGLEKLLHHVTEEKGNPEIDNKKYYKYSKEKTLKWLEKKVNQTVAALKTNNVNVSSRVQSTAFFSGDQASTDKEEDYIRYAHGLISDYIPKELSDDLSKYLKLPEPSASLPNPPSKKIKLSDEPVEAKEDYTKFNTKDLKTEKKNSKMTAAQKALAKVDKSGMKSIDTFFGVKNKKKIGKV
Chain of RNaseH2 complex (RNaseH2A/RNaseH2B/RNaseH2C), wild type;PCNA (Q8TDP1 whole entry, chain 3 of 4): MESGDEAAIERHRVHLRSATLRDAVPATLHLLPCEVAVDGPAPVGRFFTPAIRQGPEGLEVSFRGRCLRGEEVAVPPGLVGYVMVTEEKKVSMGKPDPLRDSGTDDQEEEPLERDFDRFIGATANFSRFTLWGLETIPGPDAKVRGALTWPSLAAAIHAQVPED
Chain of RNaseH2 complex (RNaseH2A/RNaseH2B/RNaseH2C), wild type;PCNA (P12004 whole entry, chain 4 of 4): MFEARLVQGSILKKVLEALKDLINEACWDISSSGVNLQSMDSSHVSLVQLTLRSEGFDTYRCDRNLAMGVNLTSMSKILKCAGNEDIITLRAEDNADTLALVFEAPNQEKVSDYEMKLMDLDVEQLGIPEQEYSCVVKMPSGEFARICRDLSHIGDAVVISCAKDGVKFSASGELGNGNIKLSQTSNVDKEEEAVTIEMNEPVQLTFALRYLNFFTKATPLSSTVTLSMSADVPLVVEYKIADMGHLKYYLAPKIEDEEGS

B1: 5'-FAM 20 bp dsDNA (dsDNA)
DNA 1: CGGTTATAGGTTCACGGGGT
DNA 2: ACCCCGTGAACCTATAACCG
With B1, the binding result was “binds”.
